Key:
[1] = molecular target: T1, human PAI-1 in complex with tPA (human, UniProt P05121 24-402; P00750 36-562); experiment: ELISA, tPA-PAI-1 complex on the plate
T1 construct: tPA was coated on the plate and active PAI-1 was captured on it; also called tPA-PAI-1 complex; Human tPA-PAI-1

[2] = molecular target: T2, human PAI-1 in complex with uPA (human, UniProt P05121 24-402; P00749 21-431, limits assumed); experiment: ELISA, uPA-PAI-1 complex on the plate
T2 construct: uPA was coated on the plate and active PAI-1 was captured on it; also called uPA-PAI-1 complex; Human uPA-PAI-1

latent human PAI-1 = molecular target: T3, latent human PAI-1 (human, UniProt P05121 24-402); experiment: ELISA, latent human PAI-1 on the plate
T3 construct: Same protein as active PAI-1 but in the latent conformation; also called recombinant latent human PAI-1; latent PAI-1

[3] = molecular target: T4, active human PAI-1 in complex with vitronectin (human, UniProt P05121 24-402; P04004 20-478); experiment: ELISA, VTN-PAI-1 complex on the plate
T4 construct: Vitronectin was coated on the plate and active PAI-1 was captured on it; also called VTN-PAI-1 complex; VTN-PAI-1
Method: An HRP-labeled goat anti-mouse Ig antibody (Southern Biotech, 1010-05) for the detection of a test antibody having an Fe region of a mouse antibody and an HRP-labeled rabbit anti-human Ig antibody (Southern Biotech, 6145-05) for the detection of a test antibody having an Fc region of a human antibody are used as the detection antibody. After incubation at room temperature for 30 minutes, the plates were washed three times with a washing solution. A color developing solution contained in a peroxidase color development kit (Sumitomo Bakelite Co., Ltd.) was added at 100 μL/well, followed by allowing to stand at room temperature for about 15 minutes, 100 μL of a reaction stop solution contained in the color development kit was added, and then the OD450 value was measured using an EnVision counter (PerkinElmer Co., Ltd.).
For each plate, the test of each antibody was carried out in duplicate, and the average value was calculated. In connection with the calculation of a PAI-1 binding rate at each concentration of each antibody, the measurement value of a well to which 0.1% BSA-containing PBS had been added instead of an antibody was taken to be 0%, and the measurement value of the maximum concentration in each antibody was set to 100%. […] The calculated PAI-1 binding rate was analyzed to calculate EC50 values of the antibodies by four-parameter logistic curve regression.

[4] = molecular target: T4, active human PAI-1 in complex with …; experiment: ELISA, VTN-PAI-1 complex on the plate; 100% set to the signal of MA56-A7C10 at its maximum concentration
[5] = molecular target: T5, active PAI-1 in monkey plasma (cynomolgus monkey, UniProt G7P138 24-402); experiment: ELISA: inhibition of the capture of active PAI-1 of monkey plasma on immobilised uPA (Example 9)
T5 construct: Native protein in diluted plasma
Method: (§1) The evaluation of an inhibitory activity on active PAI-1 in human plasma was carried out according to the method of Example 5. The evaluation of an inhibitory activity on active PAI-1 in monkey plasma was carried out using monkey plasma instead of human plasma in the method described in Example 5. With regard to the monkey plasma, the plasma was diluted using 0.1% BSA-containing PBS, such that the monkey plasma was diluted 120-fold when a plasma-antibody mixture was prepared. For both of two evaluation systems, the final concentration of each antibody was used in a range from 300 ng/mL to 0.3 ng/mL (7-step dilution). As a calibration curve sample, recombinant active human PAI-1 (Molecular Innovations Inc., PAI-A) was used which had been diluted in 7 steps in a range from 3000 pg/mL to 3 pg/mL with 0.1% BSA-containing PBS.
(§2) The concentration of each active PAI-1 was calculated using a calibration curve. The test was carried out in duplicate for each antibody, and the average value was calculated. […] Each of the calculated active PAI-1 inhibitory rates was analyzed to calculate IC50 values of the antibodies by four-parameter logistic curve regression.

[6] = molecular target: T6, active PAI-1 in human plasma (human, UniProt P05121 24-402); experiment: ELISA: inhibition of the capture of active PAI-1 of human plasma on immobilised uPA (Example 9)
T6 construct: Native protein in diluted plasma; also called human plasma-derived active PAI-1; active human PAI-1 in the plasma
Method: as §1, §2

[7] = molecular target: T6, active PAI-1 in human plasma; experiment: ELISA: inhibition of the capture of active PAI-1 of human plasma on immobilised uPA
Method: After the blocking agent in the assay plate was removed by reverse centrifugation, the pre-incubated plasma-antibody mixtures, the calibration curve sample, and the control sample were added at 100 μL/well to the assay plate which was then allowed to stand at room temperature for 30 minutes. The plate was washed three times with a washing solution (0.05% Tween-20-containing TBS), and anti-PAI-1 antibodies (Progen Biotechnik, MA-33H1F7) diluted 3,000-fold with a blocking agent (NACALAI TESQUE, INC., 03953-95) solution which had been diluted 20-fold in PBS were added thereto at 100 μL/well. […] An alkaline phosphatase substrate (Chemiluminescent AP; SurModics, APU4-0100-01) 5-fold diluted in a 0.1 mM magnesium chloride aqueous solution containing 2 mM Tris (pH 9.8) was added at 100 μL/well, and the signal value was measured using an EnVision counter (PerkinElmer Co., Ltd.).
as §2, with “of” for “of each”, “active human” for “active”, “The” for “Each of the”, “rate” for “rates”

[8] = molecular target: active monkey PAI-1 in complex with vitronectin (monkey); experiment: ELISA, VTN-monkey PAI-1 complex on the plate
Sequence of active monkey PAI-1 in complex with vitronectin (monkey) (P04004 20-478, one chain of several): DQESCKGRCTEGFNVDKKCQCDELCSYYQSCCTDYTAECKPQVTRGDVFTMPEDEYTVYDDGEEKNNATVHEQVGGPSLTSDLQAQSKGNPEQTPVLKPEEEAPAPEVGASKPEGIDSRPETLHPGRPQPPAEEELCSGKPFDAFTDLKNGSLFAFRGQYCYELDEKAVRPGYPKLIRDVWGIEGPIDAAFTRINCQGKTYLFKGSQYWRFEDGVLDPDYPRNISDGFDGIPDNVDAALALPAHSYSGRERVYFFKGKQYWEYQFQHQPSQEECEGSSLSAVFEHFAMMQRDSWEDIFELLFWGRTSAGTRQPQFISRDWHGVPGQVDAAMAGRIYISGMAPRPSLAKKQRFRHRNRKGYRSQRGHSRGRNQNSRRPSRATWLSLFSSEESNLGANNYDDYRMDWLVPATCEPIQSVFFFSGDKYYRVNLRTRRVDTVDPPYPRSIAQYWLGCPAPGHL

[9] = molecular target: recombinant active human PAI-1 (human, UniProt P05121 24-402); experiment: cell-based or functional assay

B1: MA-33H1F7 (antibody, V domains shown)
VH: QVQLQQSGAEVVKPGASVKLACTASGFNIKDTYIHWVKQGPEQGLEWIGRIDPANGNTKYDSKFQDKATITADTSSNTAYLHLSSLTSEDTAVYYCVRGDYDYVYFDYWGQGTTVTVSS
VL: DIQMTQSPSSLSASLGDRVTISCRASQDISNFLDWYQQKPDGTVKLLIYYTSRLHSGVPSRFSGSGSGTDYSLTISKLEQEDIATYFCQQGNTFPPTFGGGTKLEIK
Question: How did the EC50 [1] turn out when B1 was run?
Answer: 0.0117 µg/mL

Question: What about the EC50 [2] of the same binder?
Answer: 0.0127 µg/mL

Question: What about the EC50 (latent human PAI-1) of the same binder?
Answer: 0.0136 µg/mL

Question: What about the EC50 [3] of the same binder?
Answer: 0.0143 µg/mL

B2: MA-33B8 (antibody, V domains shown)
VH: not shown
VL: DIVMTQSPSSLAVSVGEKVTMSCKSSQSLLNIIKQKNCLAWYQQKPGQSPKLLIYWASTRESGVPDRFTGSGSGTDFTLTISSVKAEDLAVYYCQQYYSYPYTFGGGTKLEIK
Question: For B2, which EC50 [1] is on record?
Answer: 0.0228 µg/mL

Question: And the EC50 [2]?
Answer: 0.0129 µg/mL

Question: And the EC50 [4]?
Answer: 5.68 µg/mL

Question: What about the EC50 (latent human PAI-1) of the same binder?
Answer: 0.64 µg/mL

B3: fully human HOT-1 (antibody, human IgG1, kappa, V domains shown)
VH: EVQLVESGGGVVRPGGSLRLSCAASGFTFDDHGMTWVRQAPGKGLEWVSGINWNGARTVYADSVKGRFTISRDNAKNSLYLHLISLRAEDTALYHCARDRGLGLFDYWGQGTLVTVSS
VL: DIQMTQSPSTLSASVGDRVTITCRASQSISSWLAWYQQKPGKVPKILIYKASRLESGVPSRISGSGSGTEFTLTISSLQPDDFATYYCQQYNGYSYTFGQGTKLEIKR
notes: Human Ig gamma1 / human kappa constant regions; also called fully human antibody of HOT-1; fully human HOT-1 antibody
Question: Which results are given for B3?
Answer: IC50 [5]: 0.037 µg/mL; IC50 [6]: 0.0042 µg/mL; IC50 [7]: 0.006 µg/mL; EC50 [3]: 0.0042 µg/mL; EC50 [8]: 0.0036 µg/mL; EC50 value, taking the activity of uPA as an indicator (cleavage of a fluorogenic uPA substrate peptide) [9]: 0.0127 µg/mL

B4: HOT-1 (chimeric antibody) (antibody, V domains shown)
VH: EVQLVESGGGVVRPGGSLRLSCAASGFTFDDHGMTWVRQAPGKGLEWVSGINWNGARTVYADSVKGRFTISRDNAKNSLYLHLISLRAEDTALYHCARDRGLGLFDYWGQGTLVTVSS
VL: DIQMTQSPSTLSASVGDRVTITCRASQSISSWLAWYQQKPGKVPKILIYKASRLESGVPSRISGSGSGTEFTLTISSLQPDDFATYYCQQYNGYSYTFGQGTKLEIKR
Question: For B4, which IC50 [7] is on record?
Answer: 0.0113 µg/mL
